# Experimental data taken from doi:10.1101/2021.04.06.21255004, “Hemoglobin Interacts with Endothelial Nitric Oxide Synthase to Regulate Vasodilation in Human Resistance Arteries” (medRxiv, 2021).
# B1: alpha hemoglobin stabilizing protein (natural protein, UniProt Q9NZD4 1-102, looked up)
# chain: MALLKANKDLISAGLKEFSVLLNQQVFNDPLVSEEDMVTVVEDWMNFYINYYRQQVTGEPQERDKALQELRQELNTLANPFLAKYRDFLKSHELPSHPPPSS
# notes: alpha hemoglobin stabilizing protein; also called AHSP
# Target: T1, purified human alpha globin (human, UniProt P69905 1-142, biotinylated using EZ-Link NHS-PEG4 Biotinylation Kit)
# T1 construct: hemoglobin subunit alpha, human; called full-length alpha globin in the discussion; Immobilised through biotin on streptavidin biosensors; also called full-length alpha globin; source: purified
# T1 sequence (P69905 whole entry): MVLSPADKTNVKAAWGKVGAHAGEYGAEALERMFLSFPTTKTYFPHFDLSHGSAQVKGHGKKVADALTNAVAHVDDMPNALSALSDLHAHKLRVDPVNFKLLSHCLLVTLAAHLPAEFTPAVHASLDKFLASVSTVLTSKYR
# Assay: BLI; Octet RED96; biotinylated alpha globin immobilised on streptavidin biosensors; analyte in solution, 120 s association, 120 s dissociation in assay buffer
# Conditions: both partners purified
binder,measurement,value
B1,Kd,109 nM
